Experimental data published in IntAct's records for PubMed 7657594.

B1: Vascular endothelial growth factor receptor 1 (Homo sapiens), P17948 (parent)
chain: MVSYWDTGVLLCALLSCLLLTGSSSGSKLKDPELSLKGTQHIMQAGQTLHLQCRGEAAHKWSLPEMVSKESERLSITKSACGRNGKQFCSTLTLNTAQANHTGFYSCKYLAVPTSKKKETESAIYIFISDTGRPFVEMYSEIPEIIHMTEGRELVIPCRVTSPNITVTLKKFPLDTLIPDGKRIIWDSRKGFIISNATYKEIGLLTCEATVNGHLYKTNYLTHRQTNTIIDVQISTPRPVKLLRGHTLVLNCTATTPLNTRVQMTWSYPDEKNKRASVRRRIDQSNSHANIFYSVLTIDKMQNKDKGLYTCRVRSGPSFKSVNTSVHIYDKAFITVKHRKQQVLETVAGKRSYRLSMKVKAFPSPEVVWLKDGLPATEKSARYLTRGYSLIIKDVTEEDAGNYTILLSIKQSNVFKNLTATLIVNVKPQIYEKAVSSFPDPALYPLGSRQILTCTAYGIPQPTIKWFWHPCNHNHSEARCDFCSNNEESFILDADSNMGNRIESITQRMAIIEGKNKMASTLVVADSRISGIYICIASNKVGTVGRNISFYITDVPNGFHVNLEKMPTEGEDLKLSCTVNKFLYRDVTWILLRTVNNRTMHYSISKQKMAITKEHSITLNLTIMNVSLQDSGTYACRARNVYTGEEILQKKEITIRDQEAPYLLRNLSDHTVAISSSTTLDCHANGVPEPQITWFKNNHKIQQEPGIILGPGSSTLFIERVTEEDEGVYHCKATNQKGSVESSAYLTVQGTSDKSNLELITLTCTCVAATLFWLLLTLFIRKMKRSSSEIKTDYLSIIMDPDEVPLDEQCERLPYDASKWEFARERLKLGKSLGRGAFGKVVQASAFGIKKSPTCRTVAVKMLKEGATASEYKALMTELKILTHIGHHLNVVNLLGACTKQGGPLMVIVEYCKYGNLSNYLKSKRDLFFLNKDAALHMEPKKEKMEPGLEQGKKPRLDSVTSSESFASSGFQEDKSLSDVEEEEDSDGFYKEPITMEDLISYSFQVARGMEFLSSRKCIHRDLAARNILLSENNVVKICDFGLARDIYKNPDYVRKGDTRLPLKWMAPESIFDKIYSTKSDVWSYGVLLWEIFSLGGSPYPGVQMDEDFCSRLREGMRMRAPEYSTPEIYQIMLDCWHRDPKERPRFAELVEKLGDLLQANVQQDGKDYIPINAILTGNSGFTYSTPAFSEDFFKESISAPKFNSGSSDDVRYVNAFKFMSLERIKTFEELLPNATSMFDDYQGDSSTLLASPMLKRFTWTDSKPKASLKIDLRVTSKSKESGLSDVSRPSFCHSSCGHVSEGKRRFTYDHAELERKIACCSPPPDYNSVVLYSTPPI

Variants of: B1
Conditions: with p85a_human PIK3R1, P27986
p85a_human PIK3R1, P27986, sequence (P27986 whole entry): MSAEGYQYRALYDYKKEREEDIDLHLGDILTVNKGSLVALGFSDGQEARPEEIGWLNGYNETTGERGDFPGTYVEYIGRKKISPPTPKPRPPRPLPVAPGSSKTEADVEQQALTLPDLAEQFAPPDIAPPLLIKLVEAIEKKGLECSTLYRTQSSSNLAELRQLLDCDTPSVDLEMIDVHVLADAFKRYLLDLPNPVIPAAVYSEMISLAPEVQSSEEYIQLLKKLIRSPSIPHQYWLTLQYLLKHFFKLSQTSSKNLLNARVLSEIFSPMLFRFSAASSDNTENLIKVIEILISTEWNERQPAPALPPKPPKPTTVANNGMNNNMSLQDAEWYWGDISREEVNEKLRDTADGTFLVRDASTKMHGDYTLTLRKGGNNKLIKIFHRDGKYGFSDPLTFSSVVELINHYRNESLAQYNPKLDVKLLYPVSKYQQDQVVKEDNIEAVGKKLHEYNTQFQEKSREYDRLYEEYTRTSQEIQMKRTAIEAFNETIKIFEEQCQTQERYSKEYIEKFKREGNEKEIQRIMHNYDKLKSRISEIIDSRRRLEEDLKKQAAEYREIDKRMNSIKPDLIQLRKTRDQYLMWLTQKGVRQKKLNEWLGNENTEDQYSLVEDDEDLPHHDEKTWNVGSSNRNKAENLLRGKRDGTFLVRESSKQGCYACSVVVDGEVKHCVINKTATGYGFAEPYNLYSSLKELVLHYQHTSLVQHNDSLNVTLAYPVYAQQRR

effect of a mutation on the interaction	Variant
disrupting interaction	Y1213F
with no effect	Y1130F

Variants of: B1
Conditions: with p85a_human PIK3R1, P27986
Remark: another data set of the same source

effect of a mutation on the interaction	Variant
with no effect	Y1309F
decreasing interaction	Y1130F
with no effect	Y1124F;Y1184F;Y1333F
with no effect	Y1327F
disrupting interaction	K861A
